Source: patent US20030087827A1

Target: proprotein convertase PC2
Experiment: enzyme inhibition, pERTKR-MCA hydrolysis (fluorescence), competitive Ki

proprotein convertase PC2, sequence (P21661 109-637): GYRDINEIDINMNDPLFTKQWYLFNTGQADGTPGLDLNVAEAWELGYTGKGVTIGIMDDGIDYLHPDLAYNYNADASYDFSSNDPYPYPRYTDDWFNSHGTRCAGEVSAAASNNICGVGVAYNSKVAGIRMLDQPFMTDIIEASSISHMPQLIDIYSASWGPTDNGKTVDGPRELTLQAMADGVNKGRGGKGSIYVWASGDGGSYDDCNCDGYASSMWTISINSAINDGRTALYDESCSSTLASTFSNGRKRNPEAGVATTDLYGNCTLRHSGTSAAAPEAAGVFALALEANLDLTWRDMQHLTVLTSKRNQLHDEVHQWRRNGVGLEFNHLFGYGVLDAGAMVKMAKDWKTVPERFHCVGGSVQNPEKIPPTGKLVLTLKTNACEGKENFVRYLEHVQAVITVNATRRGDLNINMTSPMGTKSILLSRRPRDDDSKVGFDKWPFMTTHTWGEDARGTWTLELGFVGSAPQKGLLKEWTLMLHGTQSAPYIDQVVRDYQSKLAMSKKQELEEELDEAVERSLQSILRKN

Ki: 1.5 mM
Substance: Ac-MRKRRR-NH2 (peptide)
